Molecular target: IgG (immobilised on resin in a column)
Assay: IgG-functionalised resin column, about 15 min reaction, buffer wash; effluent monitored for nanoparticle luminescence

## protein G-zipper fusion protein (IgG binding b2 sub-domain of streptococcal protein G, linker, basic leucine zipper tail, hexahistidine), electrostatically attached to CdSe-ZnS dihydrolipoic acid nanoparticles (from UniProt P19909 373-427)
  percent of ionic bioconjugates retained by the column: 95 to 98%
